PMC10786891, “Massively parallel profiling of RNA-targeting CRISPR-Cas13d”

T1: EsCas13d, nuclease-dead (Eubacterium siraeum, UniProt B0MS50, R295A;H300A;R849A;H854A)
T1 sequence: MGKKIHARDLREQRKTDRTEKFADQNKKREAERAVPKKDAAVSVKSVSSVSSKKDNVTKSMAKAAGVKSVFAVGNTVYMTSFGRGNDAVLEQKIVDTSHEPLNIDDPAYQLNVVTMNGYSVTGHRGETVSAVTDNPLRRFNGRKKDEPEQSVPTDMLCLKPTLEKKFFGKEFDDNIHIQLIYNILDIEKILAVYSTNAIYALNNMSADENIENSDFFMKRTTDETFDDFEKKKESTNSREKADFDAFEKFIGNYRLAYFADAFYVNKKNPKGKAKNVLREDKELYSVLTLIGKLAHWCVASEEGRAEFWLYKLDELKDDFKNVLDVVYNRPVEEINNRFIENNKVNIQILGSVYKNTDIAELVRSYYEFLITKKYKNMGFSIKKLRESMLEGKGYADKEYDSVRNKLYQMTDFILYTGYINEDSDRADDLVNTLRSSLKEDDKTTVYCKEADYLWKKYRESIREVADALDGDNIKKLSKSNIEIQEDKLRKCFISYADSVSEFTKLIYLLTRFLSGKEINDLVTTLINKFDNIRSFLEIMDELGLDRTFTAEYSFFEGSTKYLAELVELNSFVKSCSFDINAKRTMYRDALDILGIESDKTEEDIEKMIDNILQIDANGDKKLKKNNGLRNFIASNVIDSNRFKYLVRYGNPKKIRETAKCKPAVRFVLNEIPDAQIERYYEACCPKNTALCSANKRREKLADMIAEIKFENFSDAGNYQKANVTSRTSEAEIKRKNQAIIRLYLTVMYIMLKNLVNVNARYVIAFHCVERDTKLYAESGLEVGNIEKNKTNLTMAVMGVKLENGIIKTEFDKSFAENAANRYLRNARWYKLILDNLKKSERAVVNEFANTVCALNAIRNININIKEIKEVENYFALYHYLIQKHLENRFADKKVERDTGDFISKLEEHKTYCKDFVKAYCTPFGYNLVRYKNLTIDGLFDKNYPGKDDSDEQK

B1: target 2 MT 5'PFS GAG 3'PFS UCU (mixed)
RNA 1: CACCCGUGCAAAAUUGCAGGGGUCUAAAACCUUCUCCAAAUUGUUUCAUCCU
RNA 2: GGGAAUGGAUCCACAUCUACGAAUUCGAGAGGAUGAAACAAUUUGGAGAAGUCUAGAUCGGAAGAGCACACGU
B2: target 2 MT 5'PFS GUA 3'PFS AUU (mixed)
RNA 1: CACCCGUGCAAAAUUGCAGGGGUCUAAAACCUUCUCCAAAUUGUUUCAUCCU
RNA 2: GGGAAUGGAUCCACAUCUACGAAUUCGUAAGGAUGAAACAAUUUGGAGAAGAUUAGAUCGGAAGAGCACACGU
B3: target 2 MT 5'PFS ACU 3'PFS ACA (mixed)
RNA 1: CACCCGUGCAAAAUUGCAGGGGUCUAAAACCUUCUCCAAAUUGUUUCAUCCU
RNA 2: GGGAAUGGAUCCACAUCUACGAAUUCACUAGGAUGAAACAAUUUGGAGAAGACAAGAUCGGAAGAGCACACGU
B4: target 2 MT 5'PFS GUA 3'PFS AUC (mixed)
RNA 1: CACCCGUGCAAAAUUGCAGGGGUCUAAAACCUUCUCCAAAUUGUUUCAUCCU
RNA 2: GGGAAUGGAUCCACAUCUACGAAUUCGUAAGGAUGAAACAAUUUGGAGAAGAUCAGAUCGGAAGAGCACACGU
B5: target 2 MT 5'PFS GCG 3'PFS UCA (mixed)
RNA 1: CACCCGUGCAAAAUUGCAGGGGUCUAAAACCUUCUCCAAAUUGUUUCAUCCU
RNA 2: GGGAAUGGAUCCACAUCUACGAAUUCGCGAGGAUGAAACAAUUUGGAGAAGUCAAGAUCGGAAGAGCACACGU
B6: target 2 MT 5'PFS GCG 3'PFS UCC (mixed)
RNA 1: CACCCGUGCAAAAUUGCAGGGGUCUAAAACCUUCUCCAAAUUGUUUCAUCCU
RNA 2: GGGAAUGGAUCCACAUCUACGAAUUCGCGAGGAUGAAACAAUUUGGAGAAGUCCAGAUCGGAAGAGCACACGU
B7: target 2 MT 5'PFS CAG 3'PFS AUC (mixed)
RNA 1: CACCCGUGCAAAAUUGCAGGGGUCUAAAACCUUCUCCAAAUUGUUUCAUCCU
RNA 2: GGGAAUGGAUCCACAUCUACGAAUUCCAGAGGAUGAAACAAUUUGGAGAAGAUCAGAUCGGAAGAGCACACGU
B8: target 2 MT 5'PFS GUA 3'PFS AUG (mixed)
RNA 1: CACCCGUGCAAAAUUGCAGGGGUCUAAAACCUUCUCCAAAUUGUUUCAUCCU
RNA 2: GGGAAUGGAUCCACAUCUACGAAUUCGUAAGGAUGAAACAAUUUGGAGAAGAUGAGAUCGGAAGAGCACACGU
B9: target 2 MT 5'PFS GCG 3'PFS AAG (mixed)
RNA 1: CACCCGUGCAAAAUUGCAGGGGUCUAAAACCUUCUCCAAAUUGUUUCAUCCU
RNA 2: GGGAAUGGAUCCACAUCUACGAAUUCGCGAGGAUGAAACAAUUUGGAGAAGAAGAGAUCGGAAGAGCACACGU
B10: target 2 MT 5'PFS GCG 3'PFS UCG (mixed)
RNA 1: CACCCGUGCAAAAUUGCAGGGGUCUAAAACCUUCUCCAAAUUGUUUCAUCCU
RNA 2: GGGAAUGGAUCCACAUCUACGAAUUCGCGAGGAUGAAACAAUUUGGAGAAGUCGAGAUCGGAAGAGCACACGU
B11: target 2 MT 5'PFS AUG 3'PFS ACC (mixed)
RNA 1: CACCCGUGCAAAAUUGCAGGGGUCUAAAACCUUCUCCAAAUUGUUUCAUCCU
RNA 2: GGGAAUGGAUCCACAUCUACGAAUUCAUGAGGAUGAAACAAUUUGGAGAAGACCAGAUCGGAAGAGCACACGU
B12: target 2 MT 5'PFS GAA 3'PFS AGU (mixed)
RNA 1: CACCCGUGCAAAAUUGCAGGGGUCUAAAACCUUCUCCAAAUUGUUUCAUCCU
RNA 2: GGGAAUGGAUCCACAUCUACGAAUUCGAAAGGAUGAAACAAUUUGGAGAAGAGUAGAUCGGAAGAGCACACGU
B13: target 2 MT 5'PFS CAG 3'PFS AUA (mixed)
RNA 1: CACCCGUGCAAAAUUGCAGGGGUCUAAAACCUUCUCCAAAUUGUUUCAUCCU
RNA 2: GGGAAUGGAUCCACAUCUACGAAUUCCAGAGGAUGAAACAAUUUGGAGAAGAUAAGAUCGGAAGAGCACACGU
B14: target 2 MT 5'PFS UUU 3'PFS AUC (mixed)
RNA 1: CACCCGUGCAAAAUUGCAGGGGUCUAAAACCUUCUCCAAAUUGUUUCAUCCU
RNA 2: GGGAAUGGAUCCACAUCUACGAAUUCUUUAGGAUGAAACAAUUUGGAGAAGAUCAGAUCGGAAGAGCACACGU
B15: target 2 MT 5'PFS UCG 3'PFS AAA (mixed)
RNA 1: CACCCGUGCAAAAUUGCAGGGGUCUAAAACCUUCUCCAAAUUGUUUCAUCCU
RNA 2: GGGAAUGGAUCCACAUCUACGAAUUCUCGAGGAUGAAACAAUUUGGAGAAGAAAAGAUCGGAAGAGCACACGU
B16: target 2 MT 5'PFS UUU 3'PFS AUA (mixed)
RNA 1: CACCCGUGCAAAAUUGCAGGGGUCUAAAACCUUCUCCAAAUUGUUUCAUCCU
RNA 2: GGGAAUGGAUCCACAUCUACGAAUUCUUUAGGAUGAAACAAUUUGGAGAAGAUAAGAUCGGAAGAGCACACGU
B17: target 2 MT 5'PFS CUG 3'PFS UGC (mixed)
RNA 1: CACCCGUGCAAAAUUGCAGGGGUCUAAAACCUUCUCCAAAUUGUUUCAUCCU
RNA 2: GGGAAUGGAUCCACAUCUACGAAUUCCUGAGGAUGAAACAAUUUGGAGAAGUGCAGAUCGGAAGAGCACACGU
B18: target 2 MT 5'PFS UUU 3'PFS AUG (mixed)
RNA 1: CACCCGUGCAAAAUUGCAGGGGUCUAAAACCUUCUCCAAAUUGUUUCAUCCU
RNA 2: GGGAAUGGAUCCACAUCUACGAAUUCUUUAGGAUGAAACAAUUUGGAGAAGAUGAGAUCGGAAGAGCACACGU
B19: target 2 MT 5'PFS GCG 3'PFS UCU (mixed)
RNA 1: CACCCGUGCAAAAUUGCAGGGGUCUAAAACCUUCUCCAAAUUGUUUCAUCCU
RNA 2: GGGAAUGGAUCCACAUCUACGAAUUCGCGAGGAUGAAACAAUUUGGAGAAGUCUAGAUCGGAAGAGCACACGU
B20: target 2 MT 5'PFS ACU 3'PFS ACG (mixed)
RNA 1: CACCCGUGCAAAAUUGCAGGGGUCUAAAACCUUCUCCAAAUUGUUUCAUCCU
RNA 2: GGGAAUGGAUCCACAUCUACGAAUUCACUAGGAUGAAACAAUUUGGAGAAGACGAGAUCGGAAGAGCACACGU
B21: target 2 MT 5'PFS CUG 3'PFS UGU (mixed)
RNA 1: CACCCGUGCAAAAUUGCAGGGGUCUAAAACCUUCUCCAAAUUGUUUCAUCCU
RNA 2: GGGAAUGGAUCCACAUCUACGAAUUCCUGAGGAUGAAACAAUUUGGAGAAGUGUAGAUCGGAAGAGCACACGU
B22: target 2 MT 5'PFS ACU 3'PFS ACC (mixed)
RNA 1: CACCCGUGCAAAAUUGCAGGGGUCUAAAACCUUCUCCAAAUUGUUUCAUCCU
RNA 2: GGGAAUGGAUCCACAUCUACGAAUUCACUAGGAUGAAACAAUUUGGAGAAGACCAGAUCGGAAGAGCACACGU
B23: target 2 MT 5'PFS ACG 3'PFS CCA (mixed)
RNA 1: CACCCGUGCAAAAUUGCAGGGGUCUAAAACCUUCUCCAAAUUGUUUCAUCCU
RNA 2: GGGAAUGGAUCCACAUCUACGAAUUCACGAGGAUGAAACAAUUUGGAGAAGCCAAGAUCGGAAGAGCACACGU
B24: target 2 MT 5'PFS ACG 3'PFS CCG (mixed)
RNA 1: CACCCGUGCAAAAUUGCAGGGGUCUAAAACCUUCUCCAAAUUGUUUCAUCCU
RNA 2: GGGAAUGGAUCCACAUCUACGAAUUCACGAGGAUGAAACAAUUUGGAGAAGCCGAGAUCGGAAGAGCACACGU
B25: target 2 MT 5'PFS AUG 3'PFS ACA (mixed)
RNA 1: CACCCGUGCAAAAUUGCAGGGGUCUAAAACCUUCUCCAAAUUGUUUCAUCCU
RNA 2: GGGAAUGGAUCCACAUCUACGAAUUCAUGAGGAUGAAACAAUUUGGAGAAGACAAGAUCGGAAGAGCACACGU
B26: target 1 insG 3' of 4,insA 3' of 3 (mixed)
RNA 1: CACCCGUGCAAAAAUGCAGGGGUCUAAAACUGAGCGGAUAACCUCUCUAUGG
RNA 2: GGGAAUGGAUCCACAUCUACGAAUUCGUACCAUAGAGAGGUUAUCCGCGUACACCGAGAUCGGAAGAGCACACGU
B27: target 1 C2G,A9C (mixed)
RNA 1: CACCCGUGCAAAAAUGCAGGGGUCUAAAACUGAGCGGAUAACCUCUCUAUGG
RNA 2: GGGAAUGGAUCCACAUCUACGAAUUCGUACCAUAGAGAGGUUCUCCGCUGACCGAGAUCGGAAGAGCACACGU
B28: target 1 A1U,C2G (mixed)
RNA 1: CACCCGUGCAAAAAUGCAGGGGUCUAAAACUGAGCGGAUAACCUCUCUAUGG
RNA 2: GGGAAUGGAUCCACAUCUACGAAUUCGUACCAUAGAGAGGUUAUCCGCUGUCCGAGAUCGGAAGAGCACACGU

Target: T1, EsCas13d, nuclease-dead
Assay: crRNA (strand 1, pre-loaded); Mg2+; 40 mM Tris-HCl pH 7.5, 150 mM NaCl, 6 mM MgCl2, 1 mM DTT, 0.1% Tween-20, 0.2 mg/ml BSA; 25 C; 10 min per concentration, then washed
Settings: tags: His6-TwinStrep-SUMO cleaved; N-terminal SNAP kept (SNAP-Surface 488); label: 3' end held by stalled T7 RNA polymerase

Q: Which Kd does the source give for B1 here?
A: The Kd was 16 ± 2.2 nM.

Q: With B2 as the binder, how does the Kd read?
A: Its Kd is 6.8 ± 0.5 nM.

Q: Which Kd does the source give for B3 here?
A: The Kd was 4.2 ± 0.7 nM.

Q: For B4, which Kd is on record?
A: The Kd was 8.9 ± 0.8 nM.

Q: For B5, which Kd is on record?
A: The Kd was ~37 nM.

Q: For B6, which Kd is on record?
A: The Kd was 30 ± 5 nM.

Q: B7 was tested. Which Kd did it give?
A: Its Kd is 7 ± 1.7 nM.

Q: With B8 as the binder, how does the Kd read?
A: The Kd was 7.8 ± 0.5 nM.

Q: How did the Kd turn out when B9 was run?
A: The Kd was 10.2 ± 1.5 nM.

Q: With B10 as the binder, how does the Kd read?
A: The Kd was 20 ± 4 nM.

Q: B11 was tested. Which Kd did it give?
A: The Kd was 18.8 ± 3.1 nM.

Q: For B12, which Kd is on record?
A: The Kd was 15.3 ± 2.4 nM.

Q: B13 was tested. Which Kd did it give?
A: The Kd was 4.5 ± 1 nM.

Q: Which Kd does the source give for B14 here?
A: Its Kd is 6.9 ± 0.8 nM.

Q: For B15, which Kd is on record?
A: The Kd was 16 ± 5 nM.

Q: For B16, which Kd is on record?
A: The Kd was 6.5 ± 0.5 nM.

Q: B17 was tested. Which Kd did it give?
A: Its Kd is 2.56 ± 0.25 nM.

Q: For B18, which Kd is on record?
A: The Kd was 7.5 ± 0.9 nM.

Q: B19 was tested. Which Kd did it give?
A: The Kd was 31 ± 5 nM.

Q: For B20, which Kd is on record?
A: The Kd was 9.5 ± 2.5 nM.

Q: Which Kd does the source give for B21 here?
A: Its Kd is 3.72 ± 0.32 nM.

Q: For B22, which Kd is on record?
A: Its Kd is 9.3 ± 2.2 nM.

Q: B23 was tested. Which Kd did it give?
A: Its Kd is 19 ± 7 nM.

Q: With B24 as the binder, how does the Kd read?
A: The Kd was 9.9 ± 1.5 nM.

Q: With B25 as the binder, how does the Kd read?
A: The Kd was 13 ± 3.2 nM.

Q: How did the Kd turn out when B26 was run?
A: The Kd was 6.5 ± 0.5 nM.

Q: Which Kd does the source give for B27 here?
A: The Kd was 15 ± 1.2 nM.

Q: For B28, which Kd is on record?
A: The Kd was 9.2 ± 0.8 nM.
